Measurements reported in the supplement of paper PMC9732359.
± gives the uncertainty stated by the source.

Experiment: protein stability index of a GFP-peptide fusion (yeast GPS) (PSI 1-4); higher = more stable; sorted into four equal gates, so the index is relative within each strain
Summary of the method: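 The protein stability index combines read frequencies across sorting gates, each weighted by its gate number and then summed. To obtain those frequencies, a pooled yeast library of GFP fusions to tiled 17-residue yeast protein peptides, on a plasmid also expressing Cherry, was grown to mid-log phase in leucine-free medium. The cells were sorted into four equal gates by GFP/Cherry ratio before plasmid amplification by PCR and Illumina sequencing.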

LWNLNAYRTDVIQALGG [PRP8]
protein stability index (doa10∆): 2.17 ± 0.055 | protein stability index (pdr5∆): 2.16 ± 0.05 | protein stability index (san1∆): 1.88 ± 0.088 | protein stability index (ubr1∆): 1.93 ± 0.041

AEQEKAKNIISNVLDGN [LRP1]
protein stability index (doa10∆): 2.45 ± 0.051 | protein stability index (pdr5∆): 2.7 ± 0.059 | protein stability index (san1∆): 2.63 ± 0.056 | protein stability index (ubr1∆): 2.98 ± 0.05

THPKDTFYITREKYNMK [ARP9]
protein stability index (doa10∆): 2.98 ± 0.12 | protein stability index (pdr5∆): 3.09 ± 0.083 | protein stability index (san1∆): 3.07 ± 0.06 | protein stability index (ubr1∆): 3.31 ± 0.064

NAEKTGKRQVLLRPSSK [RPS22B]
protein stability index (doa10∆): 3.14 ± 0.064 | protein stability index (pdr5∆): 2.93 ± 0.055 | protein stability index (san1∆): 3.24 ± 0.046 | protein stability index (ubr1∆): 2.85 ± 0.038

SAAELERLDKDKDRDTR [SNF5]
protein stability index (doa10∆): 1.76 ± 0.087 | protein stability index (pdr5∆): 1.46 ± 0.14 | protein stability index (san1∆): 1.9 ± 0.12 | protein stability index (ubr1∆): 2.95 ± 0.11

KGNLLEGKKVMAPYLPG [RPN2]
protein stability index (doa10∆): 2.14 ± 0.061 | protein stability index (pdr5∆): 1.95 ± 0.042 | protein stability index (san1∆): 2.03 ± 0.068 | protein stability index (ubr1∆): 2.14 ± 0.045

KNDKLIKIEDFVDDMLR [SNF5]
protein stability index (doa10∆): 2.88 ± 0.063 | protein stability index (pdr5∆): 2.73 ± 0.066 | protein stability index (san1∆): 1.98 ± 0.078 | protein stability index (ubr1∆): 2.68 ± 0.07

KLWFQLSESLTKFFDDA [RPN9]
protein stability index (doa10∆): 3.02 ± 0.083 | protein stability index (pdr5∆): 3.24 ± 0.099 | protein stability index (san1∆): 3.02 ± 0.066 | protein stability index (ubr1∆): 3.17 ± 0.097

EASTVPWGDYLQLETPA [BRR2]
protein stability index (doa10∆): 1.42 ± 0.066 | protein stability index (pdr5∆): 2.13 ± 0.16 | protein stability index (san1∆): 2.58 ± 0.14 | protein stability index (ubr1∆): 1.53 ± 0.098

PLPICHANSVVALTGLL [YML031W/NDC1]
protein stability index (doa10∆): 3.13 ± 0.12 | protein stability index (pdr5∆): 1.73 ± 0.083 | protein stability index (san1∆): 2.58 ± 0.099 | protein stability index (ubr1∆): 2.5 ± 0.12

TLDKKDSIPLRITNSFY [RPN9]
protein stability index (doa10∆): 2.52 ± 0.13 | protein stability index (pdr5∆): 2.81 ± 0.11 | protein stability index (san1∆): 2.9 ± 0.096 | protein stability index (ubr1∆): 2.92 ± 0.13

PKFFLGEENRVRFIGDS [QCR2]
protein stability index (doa10∆): 3.17 ± 0.1 | protein stability index (pdr5∆): 3.15 ± 0.11 | protein stability index (san1∆): 3.07 ± 0.073 | protein stability index (ubr1∆): 3.2 ± 0.069

LADRDEFIQDSAARGLS [ECM29]
protein stability index (doa10∆): 1.55 ± 0.092 | protein stability index (pdr5∆): 1.31 ± 0.06 | protein stability index (san1∆): 1.2 ± 0.14 | protein stability index (ubr1∆): 2.01 ± 0.064

QKTRVKLLFDHDELDMN [ESC2]
protein stability index (doa10∆): 2.87 ± 0.16 | protein stability index (pdr5∆): 3.36 ± 0.12 | protein stability index (san1∆): 3.02 ± 0.076 | protein stability index (ubr1∆): 3.12 ± 0.093

NLCKIIEPFECVEISHI [RPN6]
protein stability index (doa10∆): 2.27 ± 0.12 | protein stability index (pdr5∆): 2.09 ± 0.2 | protein stability index (san1∆): 1.97 ± 0.11

VTLDFGNIFADLLPNSF [SMC2]
protein stability index (doa10∆): 2.8 ± 0.1 | protein stability index (pdr5∆): 2.86 ± 0.067 | protein stability index (san1∆): 3.07 ± 0.07 | protein stability index (ubr1∆): 2.91 ± 0.064

PHIQKMLSILEIFKKGY [POP6]
protein stability index (doa10∆): 2.42 ± 0.11 | protein stability index (pdr5∆): 2.73 ± 0.099 | protein stability index (san1∆): 3.1 ± 0.091 | protein stability index (ubr1∆): 2.54 ± 0.066

LHKLQRMRLRALETENM [GRR1]
protein stability index (doa10∆): 1.46 ± 0.046 | protein stability index (pdr5∆): 1.92 ± 0.059 | protein stability index (san1∆): 1.47 ± 0.077 | protein stability index (ubr1∆): 1.38 ± 0.032

SDDIAENDNLDNVSKNA [YCG1]
protein stability index (doa10∆): 3.39 ± 0.088 | protein stability index (pdr5∆): 3.34 ± 0.14 | protein stability index (san1∆): 3.25 ± 0.063 | protein stability index (ubr1∆): 3.23 ± 0.085

AIMKPYYLWTGKQVFSL [RPO31]
protein stability index (doa10∆): 2.71 ± 0.13 | protein stability index (pdr5∆): 2.91 ± 0.11 | protein stability index (san1∆): 2.83 ± 0.085 | protein stability index (ubr1∆): 2.72 ± 0.061

RSKFGGDFLDFQVHERL [ARP7]
protein stability index (doa10∆): 3.15 ± 0.11 | protein stability index (pdr5∆): 3.11 ± 0.1 | protein stability index (san1∆): 3.5 ± 0.075 | protein stability index (ubr1∆): 3.32 ± 0.075

RLAKKPSMKKIKIEPSA [SIR3]
protein stability index (doa10∆): 2.48 ± 0.094 | protein stability index (pdr5∆): 3.06 ± 0.099 | protein stability index (san1∆): 2.76 ± 0.071 | protein stability index (ubr1∆): 2.88 ± 0.065

QRMHAIHEIDERLAKVN [NNF1]
protein stability index (doa10∆): 1.44 ± 0.093 | protein stability index (pdr5∆): 2.59 ± 0.14 | protein stability index (san1∆): 2.42 ± 0.085 | protein stability index (ubr1∆): 2.14 ± 0.061

ETVPDNVKTSVSQLYRI [RPO31]
protein stability index (doa10∆): 2.92 ± 0.1 | protein stability index (pdr5∆): 3.16 ± 0.13 | protein stability index (san1∆): 3.21 ± 0.078 | protein stability index (ubr1∆): 3.2 ± 0.069

IEKARVEAQSHRLTLED [PRE6]
protein stability index (ubr1∆): 3.26 ± 0.15

KSKGDVDIKGEDLHEKN [NUT1]
protein stability index (doa10∆): 3.32 ± 0.27 | protein stability index (san1∆): 3.44 ± 0.15

ASPHASVRTAVFSALKN [ECM29]
protein stability index (doa10∆): 1.56 ± 0.051 | protein stability index (pdr5∆): 1.58 ± 0.05 | protein stability index (san1∆): 1.25 ± 0.083 | protein stability index (ubr1∆): 1.42 ± 0.056

LFLNNFVSRIPIMFQDF [IRR1]
protein stability index (doa10∆): 1.97 ± 0.057 | protein stability index (pdr5∆): 2.04 ± 0.048 | protein stability index (san1∆): 1.7 ± 0.067 | protein stability index (ubr1∆): 1.85 ± 0.033

NRQQKKRRFDPSSSDSN [RRP6]
protein stability index (doa10∆): 2.77 ± 0.056 | protein stability index (pdr5∆): 2.69 ± 0.078 | protein stability index (san1∆): 3.05 ± 0.053 | protein stability index (ubr1∆): 3.19 ± 0.067

DDDKKPDDDKIVPLTEG [RPT1]
protein stability index (doa10∆): 3 ± 0.13 | protein stability index (pdr5∆): 3.29 ± 0.11 | protein stability index (san1∆): 3.16 ± 0.12 | protein stability index (ubr1∆): 3.32 ± 0.064

NSSEEDKKKGQNVTSET [ITC1]
protein stability index (doa10∆): 3.5 ± 0.14 | protein stability index (pdr5∆): 3.31 ± 0.17 | protein stability index (san1∆): 3.06 ± 0.17 | protein stability index (ubr1∆): 3.29 ± 0.11

STNGLGMCQLYFWHKIW [SNU114]
protein stability index (pdr5∆): 1.24 ± 0.24 | protein stability index (san1∆): 2.56 ± 0.21

QGPIVADKNCAKLHRIS [PUP1]
protein stability index (doa10∆): 3.41 ± 0.15 | protein stability index (pdr5∆): 2.94 ± 0.088 | protein stability index (san1∆): 2.79 ± 0.1 | protein stability index (ubr1∆): 2.64 ± 0.072

RRWNKLCTLNDSKGSLY [YGL100W/SEH1]
protein stability index (doa10∆): 3.31 ± 0.078 | protein stability index (pdr5∆): 3.24 ± 0.072 | protein stability index (san1∆): 2.91 ± 0.078 | protein stability index (ubr1∆): 3.1 ± 0.046

NVLVTMPVAPTMEVKSF [YMR129W/POM152]
protein stability index (doa10∆): 1.54 ± 0.068 | protein stability index (pdr5∆): 1.62 ± 0.11 | protein stability index (san1∆): 1.95 ± 0.11 | protein stability index (ubr1∆): 1.46 ± 0.068

HKVQTKLTRELEKKFPD [RPS7B]
protein stability index (doa10∆): 2.82 ± 0.16 | protein stability index (pdr5∆): 3.07 ± 0.093 | protein stability index (san1∆): 3.1 ± 0.058 | protein stability index (ubr1∆): 3.07 ± 0.055

NLNVYIQVFEKPFLKKT [CDC53]
protein stability index (doa10∆): 2.2 ± 0.071 | protein stability index (pdr5∆): 2.23 ± 0.056 | protein stability index (san1∆): 2.57 ± 0.074 | protein stability index (ubr1∆): 2.63 ± 0.057

YVAPTKKEYIELDILNK [SRB4]
protein stability index (doa10∆): 2.76 ± 0.17 | protein stability index (pdr5∆): 3.25 ± 0.22 | protein stability index (san1∆): 2.74 ± 0.13 | protein stability index (ubr1∆): 2.75 ± 0.2

KEYELLTLQEDYIKDEQ [RPT3]
protein stability index (doa10∆): 3.53 ± 0.12 | protein stability index (pdr5∆): 3.13 ± 0.11 | protein stability index (san1∆): 3.19 ± 0.083 | protein stability index (ubr1∆): 3.25 ± 0.065

DFDLLNKTLTFETETEV [FAS1]
protein stability index (doa10∆): 3.34 ± 0.079 | protein stability index (pdr5∆): 3.37 ± 0.067 | protein stability index (san1∆): 3.44 ± 0.045 | protein stability index (ubr1∆): 3.3 ± 0.051

GEQIIVHPVNEREPVPL [RRP45]
protein stability index (doa10∆): 2.85 ± 0.12 | protein stability index (pdr5∆): 3.35 ± 0.12 | protein stability index (ubr1∆): 2.9 ± 0.17

ANDHDESIDVDMDAESN [SMC3]
protein stability index (pdr5∆): 2.37 ± 0.28 | protein stability index (ubr1∆): 1.81 ± 0.25

GRRLNIRQYALATAHIY [SSN8]
protein stability index (doa10∆): 1.53 ± 0.055 | protein stability index (pdr5∆): 1.32 ± 0.057 | protein stability index (san1∆): 1.17 ± 0.17 | protein stability index (ubr1∆): 1.09 ± 0.067

VKGRENELLLPSELNQL [RPC82]
protein stability index (san1∆): 3.35 ± 0.13

SASFSLKNGDKPHMLKF [RPL6A]
protein stability index (doa10∆): 2.81 ± 0.083 | protein stability index (pdr5∆): 1.84 ± 0.055 | protein stability index (san1∆): 2.89 ± 0.06 | protein stability index (ubr1∆): 3.13 ± 0.033

AMHNSKAASSTRIFQAL [POP1]
protein stability index (doa10∆): 2.59 ± 0.093 | protein stability index (pdr5∆): 2.54 ± 0.078 | protein stability index (san1∆): 2.87 ± 0.14 | protein stability index (ubr1∆): 2.89 ± 0.11

LLPPIKIELIKNNLLIP [RPN12]
protein stability index (doa10∆): 2.16 ± 0.071 | protein stability index (pdr5∆): 2.24 ± 0.062 | protein stability index (san1∆): 1.75 ± 0.11 | protein stability index (ubr1∆): 2.09 ± 0.044

ETSSDGSKSDGSAATSG [RPN1]
protein stability index (doa10∆): 3.39 ± 0.053 | protein stability index (pdr5∆): 3.4 ± 0.055 | protein stability index (san1∆): 3.62 ± 0.048 | protein stability index (ubr1∆): 3.3 ± 0.036

NKTAHLSIPGKSTPEGT [SNU114]
protein stability index (doa10∆): 2.94 ± 0.065 | protein stability index (pdr5∆): 3.04 ± 0.061 | protein stability index (san1∆): 2.79 ± 0.048 | protein stability index (ubr1∆): 3.01 ± 0.038

AEHKYMPYTINELLEMV [BRR2]
protein stability index (doa10∆): 2.92 ± 0.083 | protein stability index (pdr5∆): 3.04 ± 0.092 | protein stability index (san1∆): 2.53 ± 0.068 | protein stability index (ubr1∆): 2.65 ± 0.043

NKLNFIVDDKQEMIDIL [DIB1]
protein stability index (doa10∆): 3.37 ± 0.099 | protein stability index (pdr5∆): 3.01 ± 0.17 | protein stability index (san1∆): 2.9 ± 0.15 | protein stability index (ubr1∆): 3 ± 0.12

DQWYCIDKLEDLSRIMD [ITC1]
protein stability index (doa10∆): 2.65 ± 0.26 | protein stability index (pdr5∆): 2.64 ± 0.22

AKTFIDLESSSPELKAD [RPS7B]
protein stability index (doa10∆): 3.03 ± 0.086 | protein stability index (pdr5∆): 3.4 ± 0.077 | protein stability index (san1∆): 3.29 ± 0.085 | protein stability index (ubr1∆): 3.17 ± 0.085

PSFMLKHHQLFYMLNAG [RPN1]
protein stability index (doa10∆): 1.33 ± 0.099 | protein stability index (pdr5∆): 1.53 ± 0.11 | protein stability index (san1∆): 1.18 ± 0.19 | protein stability index (ubr1∆): 1.12 ± 0.086
